Key:
[1] = molecular target: A/Michigan/45/2015 H1 trimer (for structural studies) (influenza A virus A/Michigan/45/2015 (H1)); assay: cryo-EM structure
[2] = molecular target: A/Perth/16/2009 H3 trimer (for structural studies) (influenza A virus A/Perth/16/2009 (H3N2)); assay: cryo-EM structure
[3] = molecular target: A/Perth/16/2009 H3 trimer (for structural studies) (influenza A virus A/Perth/16/2009 (H3N2)); assay: crystal structure

Substance | stoichiometry N [1] | stoichiometry N [2] | stoichiometry N [3]
A/Michigan/45/2015 H1 trimer (for structural studies) (natural protein) | 3 | – | –
A/Perth/16/2009 H3 trimer (for structural studies) (natural protein) | – | 3 | 3
